Assay [1] has as its target CH505 TF loop D mutant M8 Env on virus (HIV-1).
For assay [2], the target named is CH505 M11 gp120 (HIV-1). The assay is described as follows: ELISA. In general terms: In an ELISA, binding on a coated surface is turned into a signal by an enzyme label.
Assay [3] has as its target CH505 w030.28 gp120 (HIV-1). The assay is described as follows: ELISA.
Assay [4] addresses CH505 M5 gp120 (HIV-1). The assay is described as follows: ELISA.
For assay [5], the target named is CH505 transmitted/founder (TF) gp120 Env (HIV-1). The assay is described as follows: ELISA.
Assay [6] concerns the target CH505 w020.14 gp120 (HIV-1). The assay is described as follows: ELISA.
In assay [7] the target is CH505 w078.33 gp120 (HIV-1). Briefly: ELISA.
Assay [8] has as its target CH505 w100.B6 gp120 (HIV-1). The assay is described as follows: ELISA.
In assay [9] the target is CH505 w053.16 gp120 (HIV-1). The assay is described as follows: ELISA.
Assay [10] concerns the target CH505 w078.15 gp120 (HIV-1). The assay is described as follows: ELISA.
The target of assay [11] is CH505 w053.31 gp120 (HIV-1). The assay is described as follows: ELISA.
Assay [12] has as its target CH505 w030.21 gp120 (HIV-1). Briefly: ELISA.
For assay [13], the target named is CH505 TF CHIM.6R.SOSIP.664V4.1 trimer (HIV-1). Briefly: kinetic binding assay of FIG. 69.
Assay [14] concerns the target CH505 transmitted/founder (TF) gp120 Env (HIV-1). Briefly: SPR. For orientation: Surface plasmon resonance follows binding to a sensor surface in real time, without labels.
Assay [15] has the same target. Briefly: SPR, antibody captured, gp120 injected.
Assay [16] deals with CH505 TF loop D mutant M7 Env on virus (HIV-1).
Assay [17] addresses CH505 TF loop D mutant M20 Env on virus (HIV-1).
Assay [18] deals with CH505 TF loop D mutant M9 Env on virus (HIV-1).
Assay [19] has as its target BG505 SOSIP.664 gp140 trimer (HIV-1). The assay is described as follows: negative-stain EM.

Some results are limits rather than exact numbers.

One may read the IC50 as the concentration at which inhibition is half-maximal. As to CH235.9 (antibody), the IC50 in [1] turned out to be 0.66 µg/mL.
For the substance CH103 lineage IA8 (antibody), the log AUC is 6.2 log AUC in assay [2]; 1.6 log AUC in assay [3]; 0.6 log AUC in assay [4]; 5.5 log AUC in [5]; 3.4 log AUC in assay [6].
As for CH103 lineage IA1 (antibody), the log AUC in assay [7] worked out at 8.2 log AUC; in assay [2] it was 12.2 log AUC; in [8], 12.2 log AUC; in assay [3], 10.1 log AUC; in assay [9], 8.8 log AUC; in assay [4], 7 log AUC. Further, the log AUC in [5] is 10.4 log AUC; in [6], 10.3 log AUC; in [10] it was 10.9 log AUC; in [11] it was 13.4 log AUC; in [12], 11.8 log AUC.
Take CH103 lineage IA3 (antibody): the log AUC in [2] is 11.8 log AUC; in assay [3], 7.7 log AUC; in assay [9], 1.1 log AUC; in [4], 6.8 log AUC; in [5], 11 log AUC; in [6] it was 9.5 log AUC. This substance returned a log AUC in assay [10] of 3 log AUC.
Take CH235 lineage IA4 (antibody): the log AUC in assay [4] was determined as 1.4 log AUC.
As for CH103 lineage IA6 (antibody), the log AUC in assay [2] stood at 10 log AUC; in assay [3], 6.3 log AUC; in [4] it was 3.3 log AUC; in assay [5] it was 9.1 log AUC; in assay [6] it was 7.9 log AUC; in assay [10], 1 log AUC.
With CH103 lineage IA7 (antibody), the log AUC worked out at 10.1 log AUC in assay [2]; 3.5 log AUC in assay [3]; 2.3 log AUC in [4]; 9.2 log AUC in assay [5]; 7.2 log AUC in assay [6]; 0.7 log AUC in [10].
As usually defined, the Kd is the concentration at which binding is half-saturated. A high value points to lower affinity. In general, kon refers to the rate constant with which the complex forms. In [13], CH103 UCA (antibody) had a fold change of the off-rate against CH505 TF gp120 of 10 fold. Besides, the equilibrium dissociation constant (Kd) in [14] was determined as 200 nM; in assay [15], 227 nM. Moreover, the log AUC in assay [2] came to 2.6 log AUC; in assay [5], 3.5 log AUC; in [6], 0.3 log AUC. This substance also showed a kon in assay [15] of 37000 M⁻¹ s⁻¹.
For the substance “CH103 lineage IA4 (from UniProt P27701) (antibody)”, the log AUC in assay [2] worked out at 10.5 log AUC; in assay [3], 6.5 log AUC; in assay [9] it was 0.2 log AUC; in [4], 3.8 log AUC; in assay [5], 10.1 log AUC; in assay [6], 8.6 log AUC. In addition, in assay [10], the log AUC worked out at 1.3 log AUC.
Regarding CH235.9 N30T (antibody), the IC50 in assay [1] was 24.3 µg/mL; in assay [16], over 44 µg/mL; in [17], over 44 µg/mL; in [18] it was over 44 µg/mL.
Substance CH235 UCA (antibody) had a log AUC in assay [4] of 0.2 log AUC.
CH235 lineage I3 (antibody): the log AUC in assay [4] was found to be 7 log AUC; in assay [6], 2.7 log AUC.
Regarding CH235 Fab, the stoichiometry (Fabs per trimer) (Fab per trimer) in [19] stood at 1.
As to CH235 lineage I1 (antibody), the log AUC amounted to 2.8 log AUC in [2], 2.4 log AUC in [3], 9.2 log AUC in [4] and 6.5 log AUC in [6].
Consider CH103 lineage IA2 (antibody), for which the log AUC in assay [7] was determined as 9 log AUC; in [2], 12.7 log AUC; in assay [8] it was 12.1 log AUC; in [3], 11.1 log AUC; in [9], 9.3 log AUC; in assay [4] it was 7.8 log AUC. In addition, the log AUC in assay [5] was 10.8 log AUC; in [6], 11 log AUC; in [10] it was 11.5 log AUC; in [11] it was 13.3 log AUC; in [12] it was 11.5 log AUC.
Regarding CH235 lineage I2 (antibody), the log AUC in assay [4] was determined as 6.9 log AUC; in [6], 1.2 log AUC.

For the origin of these results see US20200002383A1.
